Experimental data: PMC6698748

Tests used:
[1] = target: MtsR (wild type, recombinant, untagged) (Streptococcus pyogenes (group A streptococcus), strain MGAS10870, serotype M3); test: SEC
[2] = target: MtsR F187A (Streptococcus pyogenes (group A streptococcus), strain MGAS10870, serotype M3); test: SEC

Row | Substance | stoichiometry N [1] | stoichiometry N [2]
1 | MtsR (wild type, recombinant, untagged) (natural protein) | 2 | 
2 | MtsR F187A (natural protein) |  | 2
